Consider 4 molecules from patent US20240327500A1 (NATIONAL UNIVERSITY OF SINGAPORE, published 2024).

No end group written: not given here.

One experiment concerns the target HBV virions (Genotype D) (Hepatitis B virus genotype D). The experiment is described as follows: cell-based or functional assay.
The target of experiment [1] is T1, HBsAg loop 2 linear peptide (Hepatitis B virus, not fully specified; cysteine pairing not given here).
T1 construct: The peptide is printed with alternative residues at one position
T1 peptide: CTKPTDGNCT
The experiment is described as follows: direct ELISA on coated linear peptide (50 ng/well). In general terms: An ELISA detects its analyte on a solid surface through an enzyme-linked reagent.

Experiment [2] concerns the target T2, HBsAg loop 1 linear peptide (Hepatitis B virus, not fully specified; cysteine pairing not given here).
T2 construct: The peptide is printed with alternative residues at two positions
T2 peptide: TCTTPAQGNSMFPSC
In words: direct ELISA on coated linear peptide (50 ng/well).

The next experiment concerns the target T3, HBsAg genotype A (adw2) (Hepatitis B virus genotype A (adw2), UniProt P03141 175-400).
T3 construct: the form coated in the ELISA is not described
In words: ELISA on HBsAg of four genotypes.

A further experiment deals with T4, HBsAg genotype C (adr) (Hepatitis B virus genotype C (adr), UniProt P30019 1-226).
T4 construct: the form coated in the ELISA is not described
In words: ELISA on HBsAg of four genotypes.

In a further experiment the target is T5, HBsAg genotype B (adw) (Hepatitis B virus genotype B (adw), UniProt Q9PWW3 175-400).
T5 construct: the form coated in the ELISA is not described
In words: ELISA on HBsAg of four genotypes.

In another experiment the target is T6, recombinant small-HBsAg (Hepatitis B virus).
T6 construct: also called recombinant HBsAg; rHBsAg
In words: QCM (Attana Cell A200), rHBsAg amine-coupled on chip, 25 C.

The term Kd denotes a measure of binding affinity in units of concentration.

B1: mAb006-11-IgG4 (antibody, V domains shown)
VH: QLQLQESGPGLVKPSETLSLTCTVSGGSMNINDYYWDWVRLSPGKGLEWIGAIYSSGTTYYNPSLKSRVTISVDMSKDQFSLRLSSVTAADTAVYYCVRDGPHRLYYGSGTYYNPRGGYYSYALDVWGQGTTVIV
VL: QLVLTQSPSASASLGASVKLTCTLSSGHGTYAIAWHQLRSEKGPRYLMKVNSDGSHIKGDGIPDRFSGSSSGAERYLIISSLQSEDEADYYCQTWGTGIVIFGGGTKLTVL
As for B1, in the experiment with HBV virions (Genotype D), the “EC50, in-vitro neutralization (HBeAg data)” value (“EC50, in-vitro neutralization” for short) came to 0.242 nM.

B2: mAb006-11-IgG2 (antibody, V domains shown)
VH: QLQLQESGPGLVKPSETLSLTCTVSGGSMNINDYYWDWVRLSPGKGLEWIGAIYSSGTTYYNPSLKSRVTISVDMSKDQFSLRLSSVTAADTAVYYCVRDGPHRLYYGSGTYYNPRGGYYSYALDVWGQGTTVIV
VL: QLVLTQSPSASASLGASVKLTCTLSSGHGTYAIAWHQLRSEKGPRYLMKVNSDGSHIKGDGIPDRFSGSSSGAERYLIISSLQSEDEADYYCQTWGTGIVIFGGGTKLTVL
For B2, the “EC50, in-vitro neutralization” value with HBV virions (Genotype D) was found to be 1.32 nM.

B3: mAb006-11-IgG1 (antibody, V domains shown)
VH: QLQLQESGPGLVKPSETLSLTCTVSGGSMNINDYYWDWVRLSPGKGLEWIGAIYSSGTTYYNPSLKSRVTISVDMSKDQFSLRLSSVTAADTAVYYCVRDGPHRLYYGSGTYYNPRGGYYSYALDVWGQGTTVIV
VL: QLVLTQSPSASASLGASVKLTCTLSSGHGTYAIAWHQLRSEKGPRYLMKVNSDGSHIKGDGIPDRFSGSSSGAERYLIISSLQSEDEADYYCQTWGTGIVIFGGGTKLTVL
notes: also called mAb11; mAb006-11G1
Consider B3, for which the binding result in experiment [1] is listed as “no binding”; in experiment [2], “no binding”; with HBsAg genotype A (adw2) it was “binds”; with HBsAg genotype C (adr), “binds”; with HBsAg genotype B (adw), “binds”. For the same molecule, the “EC50, in-vitro neutralization” value with HBV virions (Genotype D) was found to be 12.6 nM. Also, the equilibrium dissociation constant (Kd) with recombinant small-HBsAg is 22.7 nM.

B4: mAb006-11-IgG3 (antibody, V domains shown)
VH: QLQLQESGPGLVKPSETLSLTCTVSGGSMNINDYYWDWVRLSPGKGLEWIGAIYSSGTTYYNPSLKSRVTISVDMSKDQFSLRLSSVTAADTAVYYCVRDGPHRLYYGSGTYYNPRGGYYSYALDVWGQGTTVIV
VL: QLVLTQSPSASASLGASVKLTCTLSSGHGTYAIAWHQLRSEKGPRYLMKVNSDGSHIKGDGIPDRFSGSSSGAERYLIISSLQSEDEADYYCQTWGTGIVIFGGGTKLTVL
Consider B4, for which the “EC50, in-vitro neutralization” value with HBV virions (Genotype D) was determined as 1.05 nM.
